This is an account of results in publication PMC4499159.

One data set has as its target XRCC1 (human) (UniProt P18887). Nature of the data set: fluorescence titration. As to conditions: 50 mM HEPES pH 8.0, 100 mM NaCl, 4 mM DTT (+10 mM EDTA for APE1), labelled protein from 20 nM, temperature not stated.
Data set [1] addresses DNA polymerase beta (Polβ) (rat) (UniProt P06766). The data set can be described thus: fluorescence titration. As to conditions: 50 mM HEPES pH 8.0, 100 mM NaCl, 4 mM DTT (+10 mM EDTA for APE1), labelled protein from 20 nM, temperature not stated.
Data set [2] has as its target X-ray repair cross-complementing protein 1 (human) (UniProt P18887). The data set can be described thus: other fluorescence titration; TAF-labelled XRCC1 at 40 nM (fixed) titrated with the unlabelled partner; 50 mM HEPES pH 8.0, 100 mM NaCl, 4 mM DTT; EC50 from a four-parameter logistic fit, apparent.
Data set [3] concerns the target apurinic/apyrimidinic endonuclease 1 (human) (UniProt P27695). Nature of the data set: other fluorescence titration; FAM-labelled protein at 40 nM (fixed) titrated with the unlabelled partner; 50 mM HEPES pH 8.0, 100 mM NaCl, 4 mM DTT; excitation 485 nm, emission 520 nm; EC50 from a four-parameter logistic fit, an apparent equilibrium dissociation constant.
The target of data set [4] is X-ray repair cross-complementing protein 1 (human) (UniProt P18887). Nature of the data set: dynamic light scattering; individual proteins or equimolar mixtures at 6 μM; 25 mM HEPES pH 7.5, 100 mM NaCl, 1 mM DTT; 24°C; hydrodynamic radius compared with predicted values.
Data set [5] addresses apurinic/apyrimidinic endonuclease 1 (human) (UniProt P27695). The description is as above.
In the next data set the target is DNA polymerase β (rat) (UniProt P06766). The data set can be described thus: FRET or BRET; FAM-labelled protein (donor, 40 nM, fixed) titrated with the TMR-labelled partner (acceptor); corrected for acceptor signal; E = 1 - Fda/Fd; EC50 is that of the TMR-labelled partner; 50 mM HEPES pH 8.0, 100 mM NaCl, 4 mM DTT; apparent. In general terms: BRET reads energy transfer from a luciferase to a nearby fluorophore.

For data set [6], the target named is apurinic/apyrimidinic endonuclease 1 (human) (UniProt P27695). The description is as above.
In data set [7] the target is AP endonuclease 1 (APE1) (human) (UniProt P27695). The data set can be described thus: fluorescence titration. As to conditions: 50 mM HEPES pH 8.0, 100 mM NaCl, 4 mM DTT (+10 mM EDTA for APE1); labelled protein from 20 nM; temperature not stated.
In data set [8] the target is FAM-labeled human apurinic/apyrimidinic endonuclease 1 (human) (UniProt P27695). The data set can be described thus: other fluorescence titration; 40 nM FAM-APE1 premixed with 160 nM AP-DNA, titrated with unlabeled partner; 50 mM HEPES pH 8.0, 100 mM NaCl, 4 mM DTT, 10 mM EDTA; EC50 from four-parameter fit, apparent.
Data set [9] shares this target. Nature of the data set: other fluorescence titration; 40 nM FAM-APE1 premixed with 160 nM incised AP-DNA, titrated with unlabeled partner; 50 mM HEPES pH 8.0, 100 mM NaCl, 4 mM DTT, 10 mM EDTA; EC50 from four-parameter fit, apparent.
For data set [10] the target is unchanged. The data set can be described thus: other fluorescence titration; 40 nM FAM-APE1 premixed with 160 nM gap-DNA, titrated with unlabeled partner; 50 mM HEPES pH 8.0, 100 mM NaCl, 4 mM DTT, 10 mM EDTA; EC50 from four-parameter fit, apparent.

Usually EC50 stands for the concentration that produces a half-maximal response. Broadly, the stoichiometry N is the number of molecules, sites or subunits per partner or assembly.

For the substance nick-pUC19, the K half with XRCC1 (human) (TAF-XRCC1, n 0.60, nicked by N.Bst9I) was 10 nM; in data set [1] (nicked by N.Bst9I), 30 nM.

With “GGCGATTAAGTTGGGNAACGTCAGGGTCTTCC / GGAAGACCCTGACGTTACCCAACTTAATCGCC [AP-DNA]”, in data set [1] (N16 of strand 1 = THF abasic site), the K half worked out at 20 nM.

In the case of “X-ray repair cross-complementing protein 1 (from UniProt P18887 1-633) (natural protein)”, the EC50 was 73 nM in [2] and 76 nM in data set [3]. In addition, in [4], the stoichiometry N was 2.

Turning to pUC19, the K half was 1700 nM with XRCC1 (human) (TAF-XRCC1, n 0.63) and 2400 nM in data set [1].

In the case of “apurinic/apyrimidinic endonuclease 1 (from UniProt P27695 1-318) (enzyme)”, the EC50 in [3] is 120 nM; in the data set with DNA polymerase β (rat), 90 nM; in [6], 130 nM. The stoichiometry N in data set [3] and in data set [5] was 2 in each case. In addition, the FRET efficiency E in the data set with DNA polymerase β (rat) was found to be 0.37.

For the substance “GGCGATTAAGTTGGGTAACGTCAGGGTCTTCC (double strand) [ds-DNA]”, the K half in the data set with XRCC1 (human) turned out to be 110 nM; in data set [7] it was 100 nM; in data set [1], 160 nM.

Take “human X-ray repair cross-complementing protein 1 (from UniProt P18887 1-633) (natural protein)”: the EC50 in [8] came to 78 nM; in data set [9] it was 83 nM; in data set [10], 51 nM.
